4 substances from patent US10668186B2, “Quenched coating” (Original G B.V., priority 2014, dated 2020) can be followed below.

In one assay the test system is S. aureus. The experiment in a line: Coated catheter S. aureus challenge, near infrared fluorescence imaging. It counts as cell-based. Particulars: for Coating response to S. aureus challenge: coated Foley silicone catheter, 2×10^6 CFU ml^−1 S. aureus, 4 hours, excitation 710 nm, emission 800 nm; for detection of S. aureus (in words): coated catheter, S. aureus challenge. As for the experimental part:
The catheter used was a 14F silicone Foley Catheter which was provided in 6 mm lengths and having a diameter of 4.2 mm. An aqueous slurry of each polymer coating was prepared and each piece of catheter plunged into the slurry mixture. The coated catheters were stored at 20° C. in the dark for 15 minutes prior to repeating the dipping procedure. The process was repeated four times in total. After the final coating, the coated catheters were stored at 35° C. for 48 hours to facilitate drying of the coating. Each coated catheter and one none coated catheter as control, were incubated in the presence of 2×10^6 colony-forming units (CFU) ml^−1 of S. auereus for 4 hours. […] The results obtained from the IVIS Spectrum and IVIS Lumina II were analyzed with Living Image 4.2. (Caliper L S, Hopkinton Mass., USA). Optimal detection limits were set to the lowest signal at which positive signal was effortlessly discriminated from negative controls. Signal intensity was determined by drawing regions of interests (ROI's) and measuring average counts in these regions. The signal was corrected for background by subtracting the background signal from the signal of interest, referred to in the text as net counts. A strong near infrared signal was, attributed to the first fluorescent agent.

For another assay, the target named is V8 protease (Staphylococcus aureus, UniProt P0C1U8). The conditions noted are these: surface bound, Odyssey CLX, exciting at 800 nm. As for the experimental part:
The resulting solution (50 μL) was pipetted onto the glass slide, and the slide was kept in a humidified environment for 1H. The droplet was washed off by rinsing 3× with 1 mL DMSO:H2O 80/20; thereafter, the slide was placed in a washing solution of DMSO:H2O 80/20 and was gently agitated for 1 minute. The washing solution was rinsed off with water (5×1 mL) and the slide was dried by a flow of nitrogen.
Li-Cor Odyssey CLX equipment was used on site at Westburg (Leusden, N L; Timo Kreike, Moniek Kors). All Odyssey CLX measurements were taken by exciting at 800 nm.

In assay [1] the target is T1, Granzyme B, Human, Recombinant (Homo sapiens, UniProt P10144).
T1 construct: purchased MerckMillepore 368043; host or cells: E. coli
T1 sequence (P10144 21-247): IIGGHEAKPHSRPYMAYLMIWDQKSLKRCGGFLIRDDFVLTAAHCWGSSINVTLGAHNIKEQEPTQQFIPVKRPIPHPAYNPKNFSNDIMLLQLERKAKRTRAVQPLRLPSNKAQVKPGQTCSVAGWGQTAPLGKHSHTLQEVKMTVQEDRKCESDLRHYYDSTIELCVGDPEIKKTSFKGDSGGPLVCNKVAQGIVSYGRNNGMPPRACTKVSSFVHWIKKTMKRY
The experiment in a line: Digestion of peptide 1 in solution monitored by luminescence spectroscopy (Granzyme B). It counts as biochemical. Particulars: presence of Granzyme B. From the text: Human recombinant protease was obtained from MerckMillepore (368043 Granzyme B, Human, Recombinant, E. coli).

The target in assay [2] is V8 protease (Endoproteinase Glu-C from Staphylococcus aureus V8) (Staphylococcus aureus, UniProt P0C1U8). The conditions noted are these: in solution, excitation 720 nm. The method, then: Bacterial protease was obtained from Sigma-Aldrich (Endoproteinase Glu-C from Staphylococcus aureus V8, P2922 SIGMA), also named ‘protease V8’ or ‘V8’ in this document.
Chain of V8 protease (Endoproteinase Glu-C from Staphylococcus aureus V8) (P0C1U8 69-336): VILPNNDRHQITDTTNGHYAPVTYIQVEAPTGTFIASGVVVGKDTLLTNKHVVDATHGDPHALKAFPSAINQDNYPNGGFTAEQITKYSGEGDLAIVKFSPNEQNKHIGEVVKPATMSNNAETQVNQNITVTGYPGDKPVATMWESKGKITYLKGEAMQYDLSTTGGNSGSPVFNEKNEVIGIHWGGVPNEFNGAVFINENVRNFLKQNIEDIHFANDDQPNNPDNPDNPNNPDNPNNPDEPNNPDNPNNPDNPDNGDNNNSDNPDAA
The cleavage of peptide 1 in the presence of V8 protease and GranzymB protease was monitored in solution by luminescence spectroscopy. Photo-luminescence spectra were measured on a Perkin-Elmer Luminescence Spectrometer LS50 B. Spectra were recorded from 250 to 900 nm, using an excitation wavelength of 720 nm and applying a slit width of 15 nm.
The digestion in solution was performed in a glass vial. 100 μL of stock solution of peptide 1 (10 mg/mL) was diluted with 625 μL H2O and 250 μL 100 mM phosphate buffer solution (pH=7.8). A sample of 10 μL was taken at t=0. Then, 50 μL of V8 or Granzyme B protease stock solution (25 units, ±25 μg) was added, the mixture shaken and was kept at room temperature. […] At various time points (30 s, 2, 5, 10, 15, 20, 25, 30, 40, 50, 60, 90, 120, 150 and 180 min., and at 18H) a 10 μL incubate sample was taken and was diluted with 3 mL of water. The prepared diluted samples were measured by luminescence spectroscopy, so as to monitor the digestive cleavage of peptide 1. As blanks, cuvettes with water and the same amount of DMSO as the sample solution were used.

Where two headings read alike, the source gives them in different places. Primed or numbered codes have the meaning given here. Where no end group is shown, it is not given here. code X = (S)-5-azido-2-(Fmoc-amino)pentanoic acid (δ-azido-L-norvaline); Orn(N3) = [N-]=[N+]=NCCC[C@H](N)C(=O)O; IRDye800CW′ = not defined here; IRDyeQC‑1 = quencher label; IRDye800RS = dye label; Pol = MeO-PEG-alkyne

Chain of V8 protease (P0C1U8 69-336): as above

In the case of “(IRDye800RS)-KG-(Pol)-X-LLEFRIVAK(IRDye800RS) ({IRDye800RS-Lys-Gly-Pol-code X}-LLEFRIVAK(IRDye800RS); also: MeO-PEG) [Example 5.3]”, in the assay with S. aureus, the “Coating response to S. aureus challenge” value is reported as “+” and the “detection of S. aureus (in words)” value is “only a weak signal is detected”.
As for “Ac-(IRDye800CW)CG-(Pol)-X-LLEFRIVAK(IRDyeQC-1) ({Ac-Cys(IRDye800CW)-Gly-Pol-code X}-LLEFRIVAK(IRDyeQC‑1); also: MeO-PEG) [Example 5.4]”, in the assay on S. aureus, the “Coating response to S. aureus challenge” value is on record as “++” and the “detection of S. aureus (in words)” value was “very good detection”.
With “Ac-X-[K(IRDye800RS)]-GLLEFRIVAK(IRDye800RS)-amide ({Ac-Orn(N3)-K(IRDye800RS)}-GLLEFRIVAK(IRDye800RS)-NH2) [Peptide 1]”, the intensity result with V8 protease (before V8 protease) is “circa 6000 units”; with V8 protease (in the presence of V8 protease), 25000 units. In addition, in assay [1], the “cleavage by Granzyme B” value is “not cut”. The figures for the background fluorescence in assay [1] (maintained throughout the experiment) and in assay [2] (absence of V8 protease) were 1 AU and “around 1 AU”, respectively. For the same substance, the fluorescence intensity amounted to 4 AU in assay [2] (after 30 s of adding V8 protease) and 6 AU in assay [2] (within 6 minutes of adding V8 protease).
Regarding “G-(Pol)-X-LLEFRIVAC-IRDye800CW (LLEFRIVAC-{IRDye800CW′}; not fully specified (residue 9, N-terminus); also: MeO-PEG) [Example 5.2, comparative, no non-fluorescent agent, reference compound]”, in the assay on S. aureus, the “Coating response to S. aureus challenge” value is “−” and the “detection of S. aureus (in words)” value is reported as “only a small change in intensity in emitted light is detected”.
